Data as given in EP1787997A1 (Genetics Institute, LLC, dated 2007).

B1: mIL-2 (ligand, mouse, UniProt P04351 21-169, looked up)
chain: APTSSSTSSSTAEAQQQQQQQQQQQQHLEQLLMDLQELLSRMENYRNLKLPRMLTFKFYLPKQATELKDLQCLEDELGPLRHVLDLTQSKSFQLEDAENFISNIRVTVVKLKGSDNTFECQFDDESATVVDFLRRWIAFCQSIISTSPQ
B2: mIL-7 (ligand, mouse, UniProt P10168 26-154, looked up)
chain: ECHIKDKEGKAYESVLMISIDELDKMTGTDSNCPNNEPNFFRKHVCDDTKEAAFLNRAARKLKQFLKMNISEEFNVHLLTVSQGTQTLVNCTSKEEKNVKEQKKNDACFLKRLLREIKTCWNKILKGSI

How the values were obtained:
[1] = target: T1, murine MU-1 Ig fusion protein (murine, UniProt Q9JHX3 20-236); test: Biacore, MU-1 Ig fusion immobilized on chip
T1 construct: It includes the predicted leader 1-19, the transmembrane domain 237-253 and the cytoplasmic domain; Immobilized on a Biacore chip; not shown: Ig part of the fusion

[2] = target: T2, human MU-1 Ig fusion protein (human, UniProt Q9HBE5 20-235); test: Biacore, MU-1 Ig fusion immobilized on chip
T2 construct: A soluble fusion would most likely hold only the extracellular part; Immobilized on a Biacore chip; not shown: Ig part of the fusion
T2 sequence (Q9HBE5 20-235): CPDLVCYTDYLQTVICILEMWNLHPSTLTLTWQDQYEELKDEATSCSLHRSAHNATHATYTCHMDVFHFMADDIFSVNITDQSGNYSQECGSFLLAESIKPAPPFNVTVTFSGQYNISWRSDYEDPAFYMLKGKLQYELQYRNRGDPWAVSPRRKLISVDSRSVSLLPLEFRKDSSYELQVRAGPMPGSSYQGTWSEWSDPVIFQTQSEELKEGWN

Binder | binding result [1] | binding result [2]
B1 | no binding | no binding
B2 | no binding | no binding
